Source: the DeepSol protein solubility set

Test: soluble on expression in E. coli; label from the status in PepcDB or PDB records

Sequence | soluble on expression in E. coli
MASQTNQTVVDTKKIETENPPKPQVPASSCRKRVKDDNATFFANLKDHMDEFIHASMDEHKTCFKNTMDKIFGSFSKAEAVAEKQIEAKEVVEIHSPLQTAVTK | soluble
MASRLLRGVGALAAQALRAHGPRGAAVTRSMASGGGVPTDEEQATGLEREIMIAAQKGLDPYNMLPPKAASGTKEDPNLVPSISNKRIVGCICEEDNCTVIWFWLHKGESQRCPNCGTHYKLVPHQMAH | soluble
MASRVNIVQVQILDNPAMFVDKFKMEITFEVFEHLPHDLEWELVYVGSGTSRDFDQVLDSALVGPIPEGRHKFVFDAEHPDISKIPVEDIVGVSVLLLRCKYNDQEFINMGWFVANEYTDEELKENPPAKPLIEKLSRKIETEDLRVTTFPIRWTDEDPVAEPVDEEANKVFDEDDLMPLHDDGQDDDEEEEDDDETGPNTEEVDLNESFNERMANAHDGTEQKNGEESMEHDGASGDVEMGDKH | soluble
MASSEGLASVDPWSFRQNFNIDSWLLSDSFSHDSDILAKALHRSISTSTESSPLSPSSFFDSSTAAVDFSPPQTLSNVSFGSDPEIPAASALGLGKRKRGPGVSGGKQTKRRSRVSNKKSQTTFITADAANFRQMVQQVTGAKFLGSSNSIFAPIVKPEPHRLASRLPPSCGNLDRSSAVPTLDTSSFLSNHHQENIITDLGAPTGSFHHQSSAGTTTANVGGGSSAVELDSYPSFPTLESWKVM | not soluble
MASSFDNQMDQDGMCSVYSAQPSETNCSINEVLAKEIIAVNETPDDQADSSIYPIPKSETNVSASEGFQPCQDINQFNLSVYSAPKSETPVTMNEKFERCKDLMNVLDYSVYSMPPSEANVTMNVASFSEYTALASETNVTMADVLKNVAQDLASEHTAKSAHPTFDTTAYVERLQAELGIPDSKVIGLECSNFSNAKIIDSIECLHQLDKFQPIPVDFDQNPDFGKTAKSVESYLLRSSNASSIHHEI | not soluble
MASSKNYLEFVLEQLSGLDDVTYRSMMGEYILYFRGKIIGGIYDDRFLVKPVQAVLDKIDQSSFEFPYKGAKEMI | not soluble
MASVTFSVPKGFTEFSGLRSSSASLPFGKKLSSDEFVSIVSFQTSAMGSSGGYRKGVTEAKLKVAINGFGRIGRNFLRCWHGRKDSPLDIIAINDTGGVKQASHLLKYDSTLGIFDADVKPSGETAISVDGKIIQVVSNRNPSLLPWKELGIDIVIEGTGVFVDREGAGKHIEAGAKKVIITAPGKGDIPTYVVGVNADAYSHDEPIISNASCTTNCLAPFVKVLDQKFGIIKGTMTTTHSYTGDQRLLDASHRDLRRARAAALNIVPTSTGAAKAVALVLPNLKGKLNGIALRVPTPNVSVVDLVVQVSKKTFAEEVNAAFRDSAEKELKGILDVCDEPLVSVDFRCSDFSTTIDSSLTMVMGDDMVKVIAWYDNEWGYSQRVVDLADIVANNWK | soluble
MASYDKISDGWYRVCPKRSSNRALITVKLPFSTLFRLKPMTDITPFANRLGKNIKHLMKWAKRNGIEAWRIYDRDIPQFPFAADVYGDRIHLQEYDTGWLMRPEEYEAWLAEVLEAVAFVTGFAPEQIRLKRRERQKGLQQYEKTGKAGDDFVITENGRKFWVNLDKYLDTGLFLDHRNTRKKVGETAAGKRFLNLFSYTGSFTVYAATGGAASSETVDLSNTYLDWAKRNFELNGIDTERHKIVRADVFQYLQTAYGEGRRFDLIVMDPPSFSNSKKMSDILDIQRDHKKLIDGAVKLLASDGILYFSNNLRSFVLDDLVSEQYAVKDISKQSVPEDFRNKKIHRCWEIRHKS | not soluble
MATGDGKSVMVVGVDDSEQSTYALEWTLDRFFAPYAPNYPFKLFIVHAKPNAVSAVGLAGPGTAEVVPYVDADLKHTAAKVVEKAKAICQSRSVHGAVIEVFEGDARNILCEVVDKHHASILVVGSHGYGAIKRAVLGSTSDYCAHHAHCSVMIVKKPKIKV | soluble
MATGKGEYHMGNTMTKAIYDKFKVATPYGNKVATGAIPAEAVNIAVKVGGFKVGDQNYPINPKITFTNNTGIDIPGGTEFQFDIPVSAPDNAKDQSGGGLKVIASGHTRANNIGGLDGTMHRVAFSLPAWKSLPAGATYELDMVYYLPISGPANYTVKINNVEYAFSFEQPDLPVADLTALEHHHHHH | soluble
MATIKDVARLAGVSVATVSRVINNSPKASEASRLAVHSAMESLSYHPNANARALAQQTTETVGLVVGDVSDPFFGAMVKAVEQVAYHTGNFLLIGNGYHNEQKERQAIEQLIRHRCAALVVHAKMIPDADLASLMKQMPGMVLINRILPGFENRCIALDDRYGAWLATRHLIQQGHTRIGYLCSNHSISDAEDRLQGYYDALAESGIAANDRLVTFGEPDESGGEQAMTELLGRGRNFTAVACYNDSMAAGAMGVLNDNGIDVPGEISLIGFDDVLVSRYVRPRLTTVRYPIVTMATQAAELALALADNRPLPEITNVFSPTLVRRHSVSTPSLEASHHATSD | soluble
MATIKIKFRTSSVKTKEGVLFYQIIHARVTRQINTGYKIFPSEWDKHLACIILPDNNDIRRRFLAQLTSRIAEDMHRLKNIISKLEHSGNPFTSGKIIELFRIPPINKYSFLSFAQDLIIQLKQIGKERTAESYASAYNSFKRFMDNNGDVLLEDVNSNLMIKYEIYLKNCGVCPNSCSYYMRNLRAIYNRAVEKELTQQQYPFKYVYTGIDKTVKRAVSLKTIRQIQNLDLSTNPLMDYARDIFMFSFYTRGMSFIDMAYLKKKDLQNGVLSYRRHKTDQQLFIKWEKPMQKIVDKYNTIESSYLLPIIKNNGKDPRREYKNASHLINRKLKVIGQMLEIPVTLTTYVARHAWANIAKSKNISISVISEAMGHDSENTTRIYLASLDASIVDKANSIILKSL | not soluble
MATNKERLFAAGALGPGSGYPGAGFPFAFPGALRGSPPFEMLSPSFRGLGQPDLPKEMASLSVETQSTSSEEMVPSSPSPPPPPRVYKPCFVCNDKSSGYHYGVSSCEGCKGFFRRSIQKNMVYTCHRDKNCIINKVTRNRCQYCRLQKCFEVGMSKEAVRNDRNKKKKEVKEEGSPDSYELSPQLEELITKVSKAHQETFPSLCQLGKYTTNSSADHRVQLDLGLWDKFSELATKCIIKIVEFAKRLPGFTGLSIADQITLLKAACLDILMLRICTRYTPEQDTMTFSDGLTLNRTQMHNAGFGPLTDLVFAFAGQLLPLEMDDTETGLLSAICLICGDRMDLEEPEKVDKLQEPLLEALRLYARRRRPSQPYMFPRMLMKITDLRGISTKGAERAITLKMEIPGPMPPLIREMLENPEMFEDDSSQPGPHPNASSEDEVPGGQGKGGLKSPA | soluble
MATNKREKQLERECHEQKTSQAVCETKEELEKSWKDFQKVSNEYKEAVTACRKYVEEKSRPKRTVLDGDMGEPTEDQEDTNDHARRRRHHNHEGHHGNDMKHRENMDRKKHGTHVDHHGRVRRNGDHDPNDPNVDHTGHNHRVKRSIDDDPSDTTIDHTRHNHRRKRNQDDDPTDTTIDHTGHNHRRRRSDDHDPNDPNVDHTGHNHRRKRNHDDDPSDTTIDHTGHNHRRRRSDDHDPNDPNVDHIGHNHHRRKRNHDDDPSDTTIDHTGHNHRRRRSEDHDPNDPNVDHTGHNHRRRRDQDDDPSDTTIDHTGHNHRRRRSDDHDPNDPNVDHTGHNHKRRHVIASRSRRTVCSTAGHDQLSAMSSKFTKHCERENICLPDEDLPKGKQQDDILALQKLRAKKYSEYLTQVSKCYGKLHGQSSGNDSWAPSAQSQEQYNPVYPSLSGTPNFFSSSAQAYEAAPYYPAKSTAAKTTSKPVQKPYRRHHQRPNKAWSSGSQQFHLVTIDPSKPHEKPSVSKIAEAAPKPIFKVARGTVKTVNKRGTKGVQKMPNHRLEGNSWETNGLQNQTARGGGGGRGRGRGSGGRGRGGFNRGGRFNGAPKPSNNKDDIPYVHLPDDSPAITLNVSSENITAFHGFDSVFTTKHNFPVLIDNKIYGSCDHYYQICKVTDLTGVSSDKLNRGVRDENGKPIVETIEDAEKKSHSALAKDIIKAANISKEKVDEWRNSKGLETIQKALHAKVTQSAHLREALKESGDNILVHAFARDSIYGTGCTIPAIKKWLDDLSKAGVKHLKIPATFPLNKTTVQHCPVFAQGRNVLGVILMQLRQKISSGEIQVVDMSRIFNALRVNNAPAEPMDTSSKFGFISDTKSIGTF | not soluble
MATVKTVLVKGRCNSRGAYPLAVQVLHKRKKKVFYTGYSITPCEFDSFSGRVLFNGVYTMETVRRMNRTCRKICKILDKAIGILEREGNEYTTCDISRVYETLTGKVGFYSYFRERIRVLFDTGHEGTAKAYEATLHSMQKHLCKTDFPFAHLSSRLVIKYRDTLLEAGVGKNTIGFYLHNMKAVYRRGCLELNLVFPSPFCNIRIRSEKTVKQSLPMKQVKSLANLSLSVGTPECLARDVFMFSIYTRGMSFVDIAFLKKSDIFPGVIRYRRQKTGQLLEIGINRQIQNLLERYGDTSGDYLFPLVDESETPYSGYKKAYNRMRYALKKVS | not soluble
MATVQVDIVTPERKVFQGEADIVIARGVEGELGVMAGHIPLVTPLKTAPVRIKQGDKETLIAVSGGFLEVRPDKVNILADTAELPEEIDVERAKKAKARHETILKRLDKTDKDYLRHKRALERAEVRLQVANSKS | soluble
MATVSRLRPYATTVFAEMSALATRIGAVNLGQGFPDEDGPPKMLQAAQDAIAGGVNQYPPGPGSAPLRRAIAAQRRRHFGVDYDPETEVLVTVGATEAIAAAVLGLVEPGSEVLLIEPFYDSYSPVVAMAGAHRVTVPLVPDGRGFALDADALRRAVTPRTRALIINSPHNPTGAVLSATELAAIAEIAVAANLVVITDEVYEHLVFDHARHLPLAGFDGMAERTITISSAAKMFNCTGWKIGWACGPAELIAGVRAAKQYLSYVGGAPFQPAVALALDTEDAWVAALRNSLRARRDRLAAGLTEIGFAVHDSYGTYFLCADPRPLGYDDSTEFCAALPEKVGVAAIPMSAFCDPAAGQASQQADVWNHLVRFTFCKRDDTLDEAIRRLSVLAERPATGVPRGLEHHHHHH | soluble
MAVAGAVSGEPLVHWCTQQLRKTFGLDVSEEIIQYVLSIESAEEIREYVTDLLQGNEGKKGQFIEELITKWQKNDQELISDPLQQCFKKDEILDGQKSGDHLKRGRKKGRNRQEVPAFTEPDTTAEVKTPFDLAKAQENSNSVKKKTKFVNLYTREGQDRLAVLLPGRHPCDCLGQKHKLINNCLICGRIVCEQEGSGPCLFCGTLVCTHEEQDILQRDSNKSQKLLKKLMSGVENSGKVDISTKDLLPHQELRIKSGLEKAIKHKDKLLEFDRTSIRRTQVIDDESDYFASDSNQWLSKLERETLQKREEELRELRHASRLSKKVTIDFAGRKILEEENSLAEYHSRLDETIQAIANGTLNQPLTKLDRSSEEPLGVLVNPNMYQSPPQWVDHTGAASQKKAFRSSGFGLEFNSFQHQLRIQDQEFQEGFDGGWCLSVHQPWASLLVRGIKRVEGRSWYTPHRGRLWIAATAKKPSPQEVSELQATYRLLRGKDVEFPNDYPSGCLLGCVDLIDCLSQKQFKEQFPDISQESDSPFVFICKNPQEMVVKFPIKGNPKIWKLDSKIHQGAKKGLMKQNKAV | soluble
MAVAYEGQLTGHRGWVTSLACPQTPETATKVVSTSRDKTLLSWGPNPDRHSSECSYGLPDRRLEGHSAFVSDVALSNNGNFAVSASWDHSLRLWNLQNGQCQYKFLGHTKDVLSVAFSPDNRQIVSGGRDNALRVWNVKGECMHTLSRGAHTDWVSCVRFSPSLDAPVIVSGGWDNLVKVWDLATGRLVTDLKGHTNYVTSVTVSPDGSLCASSDKDGVARLWDLTKGEALSEMAAGAPINQICFSPNRYWMCAATEKGIRIFDLENKDIIVELAPEHQGSKKIVPECVSIAWSADGSTLYSGYTDNVIRVWGVSENA | not soluble
